“And” between values parts separate entries of the source, which are not always exact repeats. Equal values may be shown once.
Legend:
[1] = target: the molecule itself; test: native gel or EMSA; BN-PAGE, 3-12% gradient gel, 205 V for 5 h at 4°C, about 0.1 ug protein from the main SEC peak; mass estimated against NativeMARK; hexamer
[2] = target: the molecule itself; test: SDS-PAGE; standard denaturation: Rotiload, not boiled and not treated with tris-2-carboxy-ethylphosphine; polyacrylamide/urea gel; mass estimated against prestained standard; dimer

B1: DR_2577 (SlpA), major S-layer protein from Deinococcus radiodurans (natural protein, UniProt Q9RRB6 23-1167, looked up)
chain: APVSAPQVPALTDVPAGHWAKDAIDRLVSRGVILGYPDGTFRGTQNLTRYEAAIIIARLLDQMRDGETPAGMTAEDMTALQNAIQELAADLAALGVRVSDLEANAVSKDDFARLEARIEEVAAAGGEQGATEALQGQIDDLTARVDEYDALRADVDDNASSIAALNDLTVLLNQDILDLQDRVSAVEAAQADFVQRSDFDALGGRVTTVETRVETVNNSLTGRIAALERNAFSVKPSLTIGYSVSRTSRNFDVDRLFPLNADGTVANNAFTSGGIDTDTGAQRRDFGDFGNASDPVVAGAAGLYGFADGVSYTVYFTDGSTATFDGLNPADYKVPTGKVIDTTKGRNGFGFNNLARYKEGSTDIGISLGFDTSGQFSQVTSGTGGSLFSTAGRLQVNQIDLNFGLVTGLPSDAYVDTNGNGKKDDGEATGRGTYLGSGGTAAILRDPAGNVYRPVFFRFKNATTQFSVGNNPVIVTLGQQQKFYFSDYVFDNNYDGRGDGFTVTVDGSNVPVIGAWKPQIKGVYGSRSGLDGTAEAGYGVYYRGVRAQITPVGTLTAGIHYAQEGRDMFGAAQNTTSTPSDVTTYGADLHGKAFGVELHSEYATSRVRPNTANAAVQTSNAFYARVATRKDNLAFDLNTPAAKFGNDTFGVSLYDLNYRKIDAGYNNVAGISEYGYGSYSRTSAQNIAYNPDTGVTAPFANLDRQAYTDANNDGTSDRNADGTVVATNTKIGQMGFGVKAAANLGPVAIGGYYDTSTGANGDNANRMTEAGGSAKVAYSIFSLRGTYNTLDSNRPQIYRDAAGTQIIGDAKVRRYAVQADVTPGLGLFVGAYYRDVNVNGVRSTTDRGLLGRGYLASSFEPGVGNNAYRTGLRCADNNFGTGTRDIDGVGGVLNPAVNLDQSRTATCFTSYGVEAGHAGDNANALVKDLFFRVGYSRVYVPTTATATTGDFSGSVTYGDARYDRKVGVANVRLAGSFSTTNTQLDSRPAGTRGAVGLIVRTDPLENVPFRPQFNGQVGYYTADNRVAAGNYNANATKYGAGVVLNDFLLPQTKIGVRYDGYMAQNRQYTPFDGDGTQGYFSDANNNRRTNLNGVYVEGAYQDLIFSYGTYTLSQKDLNGVEYGSGINNGQPARGQTFKISYKVNF
notes: DR_2577 (SlpA), S-layer protein of Deinococcus radiodurans R1; cysteines at residues 896 and 929; Native protein isolated from the bacterium; It infers that the dimers are held by an intermolecular disulfide bond, and only a computer prediction assigns that bond to Cys929
With B1 the “stoichiometry N” value [1] was 6.22 and 5.95 and the “stoichiometry N” value [2] was 2.25 and 2.17.
